# Assay results published in paper PMC12301738 (The Journal of Biological Chemistry, 2025).
# T1: Escherichia coli RelE toxin, fluorescently labeled (RED-NHS) (Escherichia coli, UniProt P0C077)
# T1 sequence: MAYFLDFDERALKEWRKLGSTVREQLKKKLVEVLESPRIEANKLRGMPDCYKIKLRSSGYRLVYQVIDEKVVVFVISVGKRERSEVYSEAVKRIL
# Biological target: T1, Escherichia coli RelE toxin, …
# Assay: other fluorescence titration
row,Binder,EC50 [nM]
1,"Escherichia coli RelB antitoxin, wildtype (His6-RelB) (natural protein) MGSINLRIDDELKARSYAALEKMGVTPSEALRLMLEYIADNERLPFKQTLLSDEDAELVEIVKERLRNPKPVRVTLDEL",2.6
2,Escherichia coli RelB antitoxin with a stop codon at Leu66 (His6-RelBΔ66–79) (domain or fragment) MGSINLRIDDELKARSYAALEKMGVTPSEALRLMLEYIADNERLPFKQTLLSDEDAELVEIVKER,24000
3,Escherichia coli RelB antitoxin truncated at Lys70 (His6-RelBΔ70–79) (domain or fragment) MGSINLRIDDELKARSYAALEKMGVTPSEALRLMLEYIADNERLPFKQTLLSDEDAELVEIVKERLRNP,880
